How the values were obtained:
[1] = tested on: mouse fibroblast cell line NIH/3T3; experiment: Inhibition of growth factor activity of VHH homodimer by FGFR inhibitor (fibroblasts); format: cell-based; details: 20 nM
Description: Promotion of Fibroblast Growth by VHH (Homodimer)” described above.
It was examined whether the cell growth activities of bFGF and the single-domain antibody were inhibited by NPV-BGJ398 which is an FGFR kinase inhibitor.

[2] = tested on: NIH3T3 (mouse fibroblast cell line); experiment: Inhibition of growth factor activity of VHH homodimer by FGFR antagonist; format: cell-based; details: 20 nM
Description: The cell growth assay for FGF2 was performed according to the following procedure. On Day 1, a suspension including 2.5×10^4 cells/mL of NIH3T3 in DMEM of 10% CS and PS(+) was created, seeded on a CulturPlate-96 (White Opaque 96-well Microplate, manufactured by Perkin Elmer, Cat #6005680) at 100 μL/well, and cultured in a 5% CO2 incubator at 37° C. for 16 to 24 hours. On Day 2, the medium was replaced with FGF2 (PeproTech Cat #AF-100-18B) or serum-free PS(+) DMEM including various test substances, and the cells were further cultured for 2 days. On Day 4, the 96-well plate was left at room temperature for 30 minutes, and then 100 μL of Cell Titer Glo 2.0 Reagent (manufactured by Promega Corporation) at room temperature was added to each well, followed by stirring at 500 rpm for 2 minutes using a plate mixer. The plate was further left to stand for 8 minutes, and then the luminescence in each well was measured with a Synergy HTX plate reader (manufactured by BioTek) with a sensitivity set (Gain) of 200 and a measurement time of 1 s/well.
The addition amounts of FGF2 and #1L4 (hereinafter also referred to as “#1-L4-#1”), which is a dimer of VHH #1 with a linker […], were each 10 or 100 ng/mL.

[3] = biological target: FGFR (fibroblast growth factor receptor on NIH3T3 mouse fibroblast cells); experiment: cell-based or functional assay
[4] = biological target: FGF Receptor 1β (IIIc)/Fc Chimera Human Recombinant Carrier-free (R & D Systems Cat. no. 661-FR) (human) (UniProt P11362); experiment: SPR (Biacore T200, CAP chip, biotinylated FGFR1-Fc captured, VHH injected at 1.85-50 nM, single-cycle kinetics, 1:1 model, 25 C)
FGFR4-Fc = biological target: T1, FGFR4-Fc (human, UniProt P22455 22-369, limits assumed); experiment: SPR (Biacore T200, same manner as Example 5, 1:1 model)
T1 construct: not shown: Fc part
T1 sequence (looked up): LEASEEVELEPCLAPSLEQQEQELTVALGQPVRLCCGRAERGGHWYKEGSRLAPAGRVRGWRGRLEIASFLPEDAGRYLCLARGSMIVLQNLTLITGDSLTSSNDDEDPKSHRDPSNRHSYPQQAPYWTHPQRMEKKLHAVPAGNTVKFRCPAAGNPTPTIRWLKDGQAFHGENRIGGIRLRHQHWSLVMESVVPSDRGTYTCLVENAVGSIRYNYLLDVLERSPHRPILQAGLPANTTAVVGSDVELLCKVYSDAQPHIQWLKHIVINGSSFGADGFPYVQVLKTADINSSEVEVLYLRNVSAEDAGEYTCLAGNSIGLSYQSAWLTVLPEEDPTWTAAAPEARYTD

FGFR3-Fc = biological target: T2, FGFR3-Fc (human, UniProt P22607 23-375); experiment: as above
T2 chain: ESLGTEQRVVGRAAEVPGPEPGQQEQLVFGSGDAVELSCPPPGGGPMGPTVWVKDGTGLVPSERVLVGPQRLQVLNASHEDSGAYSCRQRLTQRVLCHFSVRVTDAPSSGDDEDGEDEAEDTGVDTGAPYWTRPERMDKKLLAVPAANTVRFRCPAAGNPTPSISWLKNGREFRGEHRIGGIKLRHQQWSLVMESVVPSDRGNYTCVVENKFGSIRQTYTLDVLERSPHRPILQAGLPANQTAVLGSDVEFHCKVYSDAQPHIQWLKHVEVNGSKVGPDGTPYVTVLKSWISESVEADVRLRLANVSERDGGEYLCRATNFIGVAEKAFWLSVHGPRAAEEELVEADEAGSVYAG

[5] = biological target: T3, FGFR1-DII (FGFR1 extracellular domain, DII domain) (human, UniProt P11362 142-250); experiment: BLI (Octet 384); VHH Clone #1 immobilised on an Anti-Penta-HIS sensor, FGFR1-DII in solution [A]
T3 construct: domain: DII; Expressed in AAVpro293T cells from a synthesised DNA fragment
T3 sequence (looked up): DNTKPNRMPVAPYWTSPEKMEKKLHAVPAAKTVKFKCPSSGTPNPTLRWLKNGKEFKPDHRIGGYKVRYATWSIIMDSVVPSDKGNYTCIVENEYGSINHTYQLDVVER
Description: (§1) In the preparation for measurement, a tip of the sensor chip was immersed in 200 μL of the kinetics buffer for 10 minutes in order to hydrate the sensor chip. Thereafter, 70 μL of each measurement solution was added to a 384-well black plate (manufactured by Fortebio), and measurement was performed in the following steps 1) to 6). [0291] 1) Baseline step: Baseline measurement (30 seconds) in a kinetics buffer, [0292] 2) Loading step: Immobilization of a VHH antibody on a sensor (120 seconds), [0293] 3) Baseline step: Baseline measurement (30 seconds) in a kinetics buffer, [0294] […] 5) Dissociation step: Measurement in a kinetics buffer (120 seconds), [0296] 6) Regeneration step: Measurement in Glycin-HCl (pH 2.2) for 5 seconds and measurement in a kinetics buffer for 5 seconds are repeated three times.
(§2) After completion of the measurements, the measured value of a Reference (only the kinetics buffer) was subtracted from the actual measurement value, and Global Fitting was performed using a 1:1 binding model using Octet software to calculate the binding activity (FIG. 22).

FGFR2-Fc (human) = FGFR2-Fc (human) (UniProt P21802); experiment: SPR (Biacore T200, same manner as Example 5, 1:1 model)
[6] = biological target: T4, FGFR1-DIIDIII (FGFR1 extracellular domain, DII and DIII domains) (human, UniProt P11362 142-365); experiment: BLI (Octet 384), VHH Clone #1 captured on Anti-Penta-HIS sensor, FGFR1 protein in solution from 100 nM in 2-fold dilutions, global 1:1 fit
T4 construct: domain: DIIDIII; Expressed in AAVpro293T cells from a synthesised DNA fragment
T4 sequence (looked up): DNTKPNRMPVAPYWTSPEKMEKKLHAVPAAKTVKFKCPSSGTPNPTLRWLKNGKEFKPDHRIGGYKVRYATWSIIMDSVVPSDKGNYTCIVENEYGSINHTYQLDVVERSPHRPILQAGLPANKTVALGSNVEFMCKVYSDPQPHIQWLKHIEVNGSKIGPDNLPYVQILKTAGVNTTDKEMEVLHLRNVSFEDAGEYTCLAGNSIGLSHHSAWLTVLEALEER
Description: as §1, §2

[7] = biological target: T5, FGFR1-DIII (FGFR1 extracellular domain, DIII domain) (human, UniProt P11362 251-365); experiment: as above
T5 construct: domain: DIII; Expressed in AAVpro293T cells from a synthesised DNA fragment
T5 sequence (looked up): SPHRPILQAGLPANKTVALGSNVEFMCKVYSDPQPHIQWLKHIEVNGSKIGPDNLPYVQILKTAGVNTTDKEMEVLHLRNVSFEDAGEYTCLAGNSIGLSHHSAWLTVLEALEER
Description: as §1, §2

CCN1CCN(c2ccc(Nc3cc(N(C)C(=O)Nc4c(Cl)c(OC)cc(OC)c4Cl)ncn3)cc2)CC1 [NVP-BGJ398]
effect of NVP-BGJ398 itself on cell growth [1]: little effect on cell growth
effect of NVP-BGJ398 itself on cell growth [2]: little effect on cell growth

basic FGF (PeproTech, AF-100-18B) (from UniProt P09038 135-288) (ligand)
EC50 of the growth of cultured fibroblasts (NIH/3T3, Cell Titer Glo luminescence) [3]: 5.1 nM

B1: VHH Clone #1 (VHH monomer Clone #1) (VHH)
VHH: QLQLVESGGGSVQAGGSLRLSCAASRSLSRFNVWTWYRQAPVKQRELVASITKSGDTNYAESVKGRFIISRDDDKNTVYLQMNNLKSEDTGIYYCAGSYYSGSYLYPSPGGFSVWGQGTQVTVSS
notes: also called VHH #1; FGFR #1; not shown: C-terminal His tag (purified on Ni Sepharose, captured on Anti-Penta-HIS sensor)
Kd [4]: 1.74 nM
Kd (FGFR4-Fc): 22.2 nM
koff (FGFR4-Fc): 0.0527 s⁻¹
kon (FGFR4-Fc): 2.37e+06 M⁻¹ s⁻¹
Kd (FGFR3-Fc): 1010 nM
koff (FGFR3-Fc): 0.235 s⁻¹
kon (FGFR3-Fc): 232000 M⁻¹ s⁻¹
binding result [5]: no binding
Kd (FGFR2-Fc (human)): 1630 nM
koff (FGFR2-Fc (human)): 0.776 s⁻¹
kon (FGFR2-Fc (human)): 484000 M⁻¹ s⁻¹
Kd [6]: 0.489 nM
koff [6]: 0.000141 s⁻¹
kon [6]: 289000 M⁻¹ s⁻¹
Kd [7]: 1.18 nM
koff [7]: 0.000351 s⁻¹
kon [7]: 298000 M⁻¹ s⁻¹

B2: VHH Clone #2 (VHH monomer Clone #2) (VHH, not shown: small tags and cut ends)
VHH: QVQLVESGGGLVQAGGSLRLSCAVPGSIFRFNTMGWYRQPPGKQRELVAQMSRGGITKYGDSVKGRFTITRDNAKNTVHLQMNSLKPEDTAVYYCAGSYYSGSYYYPSPQGFSVWGQGTQVTVSP
Kd [4]: 1.02 nM
koff [4]: 0.00114 s⁻¹
kon [4]: 1.11e+06 M⁻¹ s⁻¹
